# Experimental data reported in patent publication CN112794900A (2ND XIANGYA HOSPITAL CENTRAL SOUTH UNIV, dated 2021).
# T1: cBIN1 Isoform II3 (cBIN1 exon 1-12&18-20) (UniProt O00499-7 1-439)
# T1 construct: domain: cBIN1 exon 1-12&18-20; Tags are unknown; also called 缺失exon13的cBIN1 Isoform II3蛋白
# T1 sequence (looked up): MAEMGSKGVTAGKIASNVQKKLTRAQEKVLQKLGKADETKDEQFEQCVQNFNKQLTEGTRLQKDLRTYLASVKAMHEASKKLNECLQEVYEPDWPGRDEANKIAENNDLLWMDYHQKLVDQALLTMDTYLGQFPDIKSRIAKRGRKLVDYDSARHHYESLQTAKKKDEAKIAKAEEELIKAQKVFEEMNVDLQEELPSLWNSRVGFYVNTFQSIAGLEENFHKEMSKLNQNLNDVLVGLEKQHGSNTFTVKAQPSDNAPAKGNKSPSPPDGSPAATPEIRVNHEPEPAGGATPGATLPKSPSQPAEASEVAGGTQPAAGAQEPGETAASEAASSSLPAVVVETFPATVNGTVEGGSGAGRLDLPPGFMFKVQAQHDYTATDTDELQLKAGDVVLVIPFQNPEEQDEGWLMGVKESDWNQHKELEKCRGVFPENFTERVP
# T2: cBIN1 Isoform II2 (cBIN1 exon1-13&18-20) (UniProt O00499-6 1-482)
# T2 construct: domain: cBIN1 exon1-13&18-20; tags are unknown; also called 含有exon13的cBIN1 Isoform II2蛋白
# T2 sequence (looked up): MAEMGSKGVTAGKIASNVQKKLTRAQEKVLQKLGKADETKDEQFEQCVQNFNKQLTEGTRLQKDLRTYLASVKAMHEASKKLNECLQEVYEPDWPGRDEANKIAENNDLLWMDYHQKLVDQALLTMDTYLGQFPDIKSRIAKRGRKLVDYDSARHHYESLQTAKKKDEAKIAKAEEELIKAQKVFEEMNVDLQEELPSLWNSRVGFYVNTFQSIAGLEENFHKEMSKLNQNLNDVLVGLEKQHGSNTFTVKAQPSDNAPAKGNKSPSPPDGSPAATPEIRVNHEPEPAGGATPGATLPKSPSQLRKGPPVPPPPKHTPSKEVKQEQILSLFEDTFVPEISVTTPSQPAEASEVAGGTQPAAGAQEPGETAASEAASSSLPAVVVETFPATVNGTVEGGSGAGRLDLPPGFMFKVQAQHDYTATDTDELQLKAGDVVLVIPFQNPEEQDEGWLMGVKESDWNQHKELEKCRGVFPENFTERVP
# B1: 鼠源抗体 8G1-D7-F5 (抗人源cBIN1 exon13抗体) (antibody, V domains shown)
# VH: EVQLQQSGAELVRPGASVKLSCTTSGFNIKDSYMHWVKQRPEQGLEWIGRIDPEDDDAVYAPKFQDRATMTADTSSNTAYLHLSSLTSDDTAVYYCTTSTLVATPWFFDVWGTGTTVTVSS
# VL: DIQMTQTTSSLSASLGDRVTISCSASQDINNYLNWYQQKPDGTVKLLIYYTSTLHSGVPSRFSGSGSGTDYSLTITNLEPEDFATYYCQQYTHNLPWTFGGGTKLEIK
# notes: Mouse hybridoma antibody; The printed light chain FR3 may lack a leading G; also called cBIN1抗体
# Assays:
# [1] = biological target: T1, cBIN1 Isoform II3 (cBIN1 exon …); test: ELISA, antigen coated at 0.1μg/well
# [2] = biological target: T2, cBIN1 Isoform II2 (cBIN1 exon1-13&18-20); test: ELISA, antigen coated at 0.1μg/well, OD450
binder,measurement,setting,value
B1,binding result,[1],"no binding (tested: 10μg/ml起始浓度, 三倍稀释, 11个检测点)"
same,EC50,[2],0.058 µg/mL
